This assay addresses T1, His6-tagged human centrin1 (human, UniProt Q12798 1-172).
T1 sequence (looked up): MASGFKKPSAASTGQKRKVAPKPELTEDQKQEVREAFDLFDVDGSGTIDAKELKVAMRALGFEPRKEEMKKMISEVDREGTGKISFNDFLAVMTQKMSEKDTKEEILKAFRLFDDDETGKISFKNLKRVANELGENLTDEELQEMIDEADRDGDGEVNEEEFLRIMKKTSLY
Description: fluorescence polarisation; fluorescence anisotropy; 2-fold dilution series of centrin1, 100 nM Sfi1 peptide; 10 mM HEPES pH 7.4, 100 mM CaCl2, 0.005% v/v Tween 20; 45 min at RT. The note with it: both partners purified. Background: Polarisation of emitted light reports the rotation of a fluorescent probe.

Where no end group is shown, it is not given here.

B1: fluorescein-labelled Sfi1 peptide (peptide)
peptide: REVAARESQHNRQLLRGALRRWK
modifications: not fully specified (residue 23)
notes: Sfi1 (mitotic spindle regulator), human, residues 670-692; also called F-Sfi1
For orientation: Kd means a measure of binding affinity in units of concentration. Low values mean higher affinity, high ones lower affinity. The molecule B1 registered a Kd of 30 ± 12 nM.

Source of the values: article PMC10296094 (Cancers, 2023).
